Data set [1] deals with T1, GST-BrERF72 (Brassica (Chinese flowering cabbage), UniProt M4CBR0 1-245). Briefly: EMSA; LightShift Chemiluminescent EMSA kit, 6% native PAGE; buffer, salt, pH and temperature not stated. The settings on record: protein: recombinant, tags: N-terminal GST (pGEX-4T-1), label: 5' biotin.
The target in data set [2] is T1, GST-BrERF72. Briefly: competition; unlabeled mutant vs labeled BrAOC3 probe; LightShift Chemiluminescent EMSA kit, 6% native PAGE; buffer, salt, pH and temperature not stated. The settings on record: protein: recombinant; tags: N-terminal GST (pGEX-4T-1); blunt.
The target in data set [3] is T1, GST-BrERF72. Briefly: competition; unlabeled mutant vs labeled BrLOX4 probe; LightShift Chemiluminescent EMSA kit, 6% native PAGE; buffer, salt, pH and temperature not stated. The conditions noted are these: protein: recombinant; tags: N-terminal GST (pGEX-4T-1); blunt. On the technique in general: Mobility shift assays separate free from complexed probe on a gel.
Data set [4] deals with T1, GST-BrERF72. Kind of data set: competition; unlabeled mutant vs labeled BrOPR3 probe; LightShift Chemiluminescent EMSA kit, 6% native PAGE; buffer, salt, pH and temperature not stated. The settings on record: protein: recombinant; tags: N-terminal GST (pGEX-4T-1); blunt.

T1 sequence (M4CBR0 entry or part of it): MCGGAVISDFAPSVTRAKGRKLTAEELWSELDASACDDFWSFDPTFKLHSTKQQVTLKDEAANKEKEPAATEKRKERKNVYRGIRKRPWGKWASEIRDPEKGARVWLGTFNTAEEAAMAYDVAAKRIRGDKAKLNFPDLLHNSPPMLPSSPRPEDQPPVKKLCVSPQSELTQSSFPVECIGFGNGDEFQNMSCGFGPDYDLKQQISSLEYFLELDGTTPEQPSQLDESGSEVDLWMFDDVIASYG

B1: BrOPR3 promoter probe (dsDNA)
DNA 1: CCTGAACCAATCATAGCCTGGCGGCTAAGTCTTACAGTTGA
DNA 2: TCAACTGTAAGACTTAGCCGCCAGGCTATGATTGGTTCAGG
For the molecule B1, in data set [1] (blunt), the binding result was “binds”.

B2: GCC-box probe (dsDNA)
DNA 1: CATAAGAGCCGCCACTCATAAGAGCCGCCACT
DNA 2: AGTGGCGGCTCTTATGAGTGGCGGCTCTTATG
Regarding B2, the binding result in data set [1] is recorded as “binds”.

B3: DRE/CRT probe (dsDNA)
DNA 1: ATTTCATGGCCGACCTGCTTTCATGGCCGACCTGCTTT
DNA 2: AAAGCAGGTCGGCCATGAAAGCAGGTCGGCCATGAAAT
As to B3, the binding result in data set [1] is “binds”.

B4: BrAOC3 promoter probe (dsDNA)
DNA 1: ATGTCTTCACTAAAAACACTATACCGACCAGAGTTTTGTAGACATAAATTACGAA
DNA 2: TTCGTAATTTATGTCTACAAAACTCTGGTCGGTATAGTGTTTTTAGTGAAGACAT
As for B4, the binding result in data set [1] (blunt) was “binds”.

B5: mBrAOC3 promoter probe (dsDNA)
DNA 1: ATGTCTTCACTAAAAACACTATAAAAAACAGAGTTTTGTAGACATAAATTACGAA
DNA 2: TTCGTAATTTATGTCTACAAAACTCTGTTTTTTATAGTGTTTTTAGTGAAGACAT
Take B5: in data set [2], the binding result is recorded as “no binding”.

B6: BrLOX4 promoter probe (dsDNA)
DNA 1: ACATGTTATATCCGCGCGAAGCGCGGACACCGACTCTAGTTATCAGTAAAAATAAATG
DNA 2: CATTTATTTTTACTGATAACTAGAGTCGGTGTCCGCGCTTCGCGCGGATATAACATGT
In the case of B6, the binding result in data set [1] (blunt) is listed as “binds”.

B7: mBrLOX4 promoter probe (dsDNA)
DNA 1: ACATGTTATATCCGCGCGAAGCGCGGACAAAAAATCTAGTTATCAGTAAAAATAAATG
DNA 2: CATTTATTTTTACTGATAACTAGATTTTTTGTCCGCGCTTCGCGCGGATATAACATGT
In the case of B7, the binding result in data set [3] was “no binding”.

B8: mBrOPR3 promoter probe (dsDNA)
DNA 1: CCTGAACCAATCATAGCCTAAAAAATAAGTCTTACAGTTGA
DNA 2: TCAACTGTAAGACTTATTTTTTAGGCTATGATTGGTTCAGG
Consider B8, for which, in data set [4], the binding result is given as “no binding”.

The record behind these values is PMC5928098, “Association of BrERF72 with methyl jasmonate-induced leaf senescence of Chinese flowering cabbage through activating JA biosynthesis-related genes”.
